Data taken from patent US20040131610A1.

Molecular target: Fc gamma receptor (Fc(γ)R) on dendritic cells
Test: cell-based or functional assay

**Q.** Which DC uptake of apoptotic tumor cells does the source give for monoclonal antibody 3G4 (ATCC PTA 4545) here?
**A.** 300%
